Test results reported in publication PMC5749176.

Columns and labels:
AR-DBD = AR-DBD (human, UniProt P10275 557-647); assay: EMSA
GR-DBD = GR-DBD (human, UniProt P04150 418-506); assay: EMSA
GR-DBD, sequence (P04150 418-506): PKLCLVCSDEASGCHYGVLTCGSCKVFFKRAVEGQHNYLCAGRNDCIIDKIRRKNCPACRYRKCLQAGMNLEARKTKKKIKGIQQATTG

AR-DBD, sequence (P10275 557-647): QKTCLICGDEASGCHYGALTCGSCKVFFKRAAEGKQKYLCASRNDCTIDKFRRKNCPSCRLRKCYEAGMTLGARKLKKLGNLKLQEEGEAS

B1: Shape-1 (dsDNA)
DNA 1: GGCCAAAAAGAACACCGTGTACTTTTGGGCT
DNA 2: AGCCCAAAAGTACACGGTGTTCTTTTTGGCC
B1: binds (AR-DBD).

B2: Shape-2 (dsDNA)
DNA 1: GGGCGGAGGGTACACCGTGTACTCTTCCCCC
DNA 2: GGGGGAAGAGTACACGGTGTACCCTCCGCCC
B2: binds (AR-DBD).

B3: Shape-3 (dsDNA)
DNA 1: AAACAAAAAGAACACCGTTTTATTTTGGTGT
DNA 2: ACACCAAAATAAAACGGTGTTCTTTTTGTTT
B3: binds (AR-DBD).

B4: Shape-4 (dsDNA)
DNA 1: GGGCGTTCGGGACATAATGGCGGGAACCCCC
DNA 2: GGGGGTTCCCGCCATTATGTCCCGAACGCCC
B4: binds (GR-DBD).
